Data set [1] deals with HeLa Kyoto. Put plainly: melting temperature (median over replicates), in situ; higher = more thermally stable.
The subject of data set [2] is HeLa Kyoto. Description: thermal stability score vs G1/S (z-score of summed log2 fold changes over temperatures); higher = more thermally stable than in G1/S.
For data set [3], the system named is HeLa Kyoto. Put plainly: solubility in G1/S (NP-40 vs SDS abundance) (log2 ratio); higher = more soluble. The following applies: cell cycle stage: G1/S.
The subject of data set [4] is HeLa Kyoto. Put plainly: solubility change mitosis vs G1/S (difference of NP-40 vs SDS log2 ratios) (log2 ratio difference); higher = more soluble in mitosis.
Where [5] appears, read: cell cycle stage: early G1 (4.5 h after nocodazole release).
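Throughout, for melting temperature (median over replicates), in situ: HeLa Kyoto cells synchronized by double thymidine or nocodazole block, proteins quantified by TMT10plex mass spectrometry, three independent biological replicates.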
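Throughout, for solubility change mitosis vs G1/S (difference of NP-40 vs SDS log2 ratios): synchronized HeLa Kyoto cells (double thymidine block for G1/S, nocodazole release for mitosis), protein amounts in NP-40 versus SDS lysates quantified by mass spectrometry, three biological replicates.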
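Throughout, for solubility in G1/S (NP-40 vs SDS abundance): HeLa Kyoto cells arrested at G1/S by double thymidine block, proteins quantified by TMT10plex mass spectrometry in mild NP-40 versus SDS extracts, three biological replicates.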
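Throughout, for thermal stability score vs G1/S (z-score of summed log2 fold changes over temperatures): synchronized HeLa Kyoto cells, proteins quantified by TMT10plex mass spectrometry, three biological replicates, mitosis taken 0.5 h after nocodazole release, G1/S directly after double thymidine block.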

For the sequence “MANIAVQRIKREFKEVLKSEETSKNQIKVDLVDENFTELRGEIAGPPDTPYEGGRYQLEIKIPETYPFNPPKVRFITKIWHPNISSVTGAICLDILKDQWAAAMTLRTVLLSLQALLAAAEPDDPQDAVVANQYKQNPEMFKQTARLWAHVYAGAPVSSPEYTKKIENLCAMGFDRNAVIVALSSKSWDVETATELLLSN [UBE2K]”, the melting temperature in the data set on HeLa Kyoto [1] (cell cycle stage: G1/S) stood at 53.2 °C; with HeLa Kyoto [1] (cell cycle stage: mitosis) it was 53.9 °C. For the same sequence, the thermal stability score with HeLa Kyoto [2] (setting [5]) is -2.17; with HeLa Kyoto [2] (cell cycle stage: mitosis) it was 0.646. Further, the “solubility in G1/S (log2)” value in the data set with HeLa Kyoto [3] amounted to 0.332. Also, the “solubility change mitosis (log2)” value in the data set with HeLa Kyoto [4] is -0.0147.
Regarding “MANLLKTVVTGCSCPLLSNLGSCKGLRVKKDFLRTFYTHQELWCKAPVKPGIPYKQLTVGVPKEIFQNEKRVALSPAGVQNLVKQGFNVVVESGAGEASKFSDDHYRVAGAQIQGAKEVLASDLVVKVRAPMVNPTLGVHEADLLKTSGTLISFIYPAQNPELLNKLSQRKTTVLAMDQVPRVTIAQGYDALSSMANIAGYKAVVLAANHFGRFFTGQITAAGKVPPAKILIVGGGVAGLASAGAAKSMGAIVRGFDTRAAALEQFKSLGAEPLEVDLKESGEGQGGYAKEMSKEFIEAEMKLFAQQCKEVDILISTALIPGKKAPVLFNKEMIESMKEGSVVVDLAAEAGGNFETTKPGELYIHKGITHIGYTDLPSRMATQASTLYSNNITKLLKAISPDKDNFYFDVKDDFDFGTMGHVIRGTVVMKDGKVIFPAPTPKNIPQGAPVKQKTVAELEAEKAATITPFRKTMSTASAYTAGLTGILGLGIAAPNLAFSQMVTTFGLAGIVGYHTVWGVTPALHSPLMSVTNAISGLTAVGGLALMGGHLYPSTTSQGLAALAAFISSVNIAGGFLVTQRMLDMFKRPTDPPEYNYLYLLPAGTFVGGYLAALYSGYNIEQIMYLGSGLCCVGALAGLSTQGTARLGNALGMIGVAGGLAATLGVLKPGPELLAQMSGAMALGGTIGLTIAKRIQISDLPQLVAAFHSLVGLAAVLTCIAEYIIEYPHFATDAAANLTKIVAYLGTYIGGVTFSGSLIAYGKLQGLLKSAPLLLPGRHLLNAGLLAASVGGIIPFMVDPSFTTGITCLGSVSALSAVMGVTLTAAIGGADMPVVITVLNSYSGWALCAEGFLLNNNLLTIVGALIGSSGAILSYIMCVAMNRSLANVILGGYGTTSTAGGKPMEISGTHTEINLDNAIDMIREANSIIITPGYGLCAAKAQYPIADLVKMLTEQGKKVRFGIHPVAGRMPGQLNVLLAEAGVPYDIVLEMDEINHDFPDTDLVLVIGANDTVNSAAQEDPNSIIAGMPVLEVWKSKQVIVMKRSLGVGYAAVDNPIFYKPNTAMLLGDAKKTCDALQAKVRESYQK [NNT]”, the melting temperature with HeLa Kyoto [1] (cell cycle stage: G1/S) and in the data set on HeLa Kyoto [1] (cell cycle stage: mitosis) was 53.4 °C throughout. In addition, the thermal stability score with HeLa Kyoto [2] (setting [5]) is -1.09; in the data set with HeLa Kyoto [2] (cell cycle stage: mitosis), -1.47. Moreover, the “solubility in G1/S (log2)” value in the data set with HeLa Kyoto [3] came out at 0.11. Further, the “solubility change mitosis (log2)” value in the data set on HeLa Kyoto [4] is -0.0884.
With “MANQVNGNAVQLKEEEEPMDTSSVTHTEHYKTLIEAGLPQKVAERLDEIFQTGLVAYVDLDERAIDALREFNEEGALSVLQQFKESDLSHVQNKSAFLCGVMKTYRQREKQGSKVQESTKGPDEAKIKALLERTGYTLDVTTGQRKYGGPPPDSVYSGVQPGIGTEVFVGKIPRDLYEDELVPLFEKAGPIWDLRLMMDPLSGQNRGYAFITFCGKEAAQEAVKLCDSYEIRPGKHLGVCISVANNRLFVGSIPKNKTKENILEEFSKVTEGLVDVILYHQPDDKKKNRGFCFLEYEDHKSAAQARRRLMSGKVKVWGNVVTVEWADPVEEPDPEVMAKVKVLFVRNLATTVTEEILEKSFSEFGKLERVKKLKDYAFVHFEDRGAAVKAMDEMNGKEIEGEEIEIVLAKPPDKKRKERQAARQASRSTAYEDYYYHPPPRMPPPIRGRGRGGGRGGYGYPPDYYGYEDYYDDYYGYDYHDYRGGYEDPYYGYDDGYAVRGRGGGRGGRGAPPPPRGRGAPPPRGRAGYSQRGAPLGPPRGSRGGRGGPAQQQRGRGSRGSRGNRGGNVGGKRKADGYNQPDSKRRQTNNQQNWGSQPIAQQPLQQGGDYSGNYGYNNDNQEFYQDTYGQQWK [HNRNPR]”, the melting temperature in the data set on HeLa Kyoto [1] (cell cycle stage: G1/S) came out at 47.8 °C; in the data set with HeLa Kyoto [1] (cell cycle stage: mitosis) it was 49.4 °C. For the same sequence, the thermal stability score in the data set with HeLa Kyoto [2] (setting [5]) was determined as 2.99; in the data set on HeLa Kyoto [2] (cell cycle stage: mitosis), 8.2. The “solubility in G1/S (log2)” value in the data set with HeLa Kyoto [3] is -0.12. Further, the “solubility change mitosis (log2)” value in the data set with HeLa Kyoto [4] was 0.234.
Regarding “MAPAGCCCCCCFWGGAVAAAGAARRVLLLLLLGVLSAGLRPGALATEHYSPLSLLKQELQHRQQQEAPAGGGGCSPQSGDWGDQYSAECGESSFLNFHDSDCEPKGSSPCDSLLSLNTEKILSQAKSIAEQKRFPFATDNDSTNEELAIAYVLIGSGLYDEAIRHFSTMLQEEPDLVSAIYGRGIAYGKKGLHDIKNAELALFELSRVITLEPDRPEVFEQRAEILSPLGRINEAVNDLTKAIQLQPSARLYRHRGTLYFISEDYATAHEDFQQSLELNKNQPIAMLYKGLTFFHRGLLKEAIESFKEALKQKVDFIDAYKSLGQAYRELGNFEAATESFQKALLLNQNHVQTLQLRGMMLYHHGSLQEALKNFKRCLQLEPYNEVCQYMKGLSHVAMGQFYEGIKAQTKVMLNDPLPGQKASPEYLKVKYLREYSRYLHAHLDTPLTEYNIDVDLPGSFKDHWAKNLPFLIEDYEEQPGLQPHIKDVLHQNFESYKPEVQELICVADRLGSLMQYETPGFLPNKRIHRAMGLAALEVMQAVQRTWTNSKVRMNGKTRLMQWRDMFDIAVKWRRIADPDQPVLWLDQMPARSLSRGFNNHINLIRGQVINMRYLEYFEKILHFIKDRILVYHGANNPKGLLEVREALEKVHKVEDLLPIMKQFNTKTKDGFTVNTKVPSLKDQGKEYDGFTITITGDKVGNILFSVETQTTEERTQLYHAEIDALYKDLTAKGKVLILSSEFGEADAVCNLILSLVYYFYNLMPLSRGSSVIAYSVIVGALMASGKEVAGKIPKGKLVDFEAMTAPGSEAFSKVAKSWMNLKSISPSYKTLPSVSETFPTLRSMIEVLNTDSSPRCLKKL [TTC13]”, the melting temperature turned out to be 52.7 °C in the data set with HeLa Kyoto [1] (cell cycle stage: G1/S) and 53.3 °C in the data set with HeLa Kyoto [1] (cell cycle stage: mitosis). The thermal stability score turned out to be 1.53 with HeLa Kyoto [2] (setting [5]) and 0.195 with HeLa Kyoto [2] (cell cycle stage: mitosis). The “solubility in G1/S (log2)” value in the data set with HeLa Kyoto [3] was 0.165. Further, the “solubility change mitosis (log2)” value in the data set with HeLa Kyoto [4] is -0.163.

Values taken from the supplement of paper PMC5998384.
